Experimental findings from US20250043287, “SYNTHETIC MEMORY WITH INTERCEPTING RECOMBINASE FUNCTION” (Georgia Tech Research Corporation, published 2025) are described below.

One data set concerns the target I+HQN (UniProt P03023 SEQ:1-360, Y17H,R22N). Kind of data set: cell_activity; day 1 dynamic range, IPTG; 57.65 day 3. The settings on record: chain copies: 4.
For the next data set, the target named is T1, E+HQN (UniProt O87590 SEQ:1-337, Y17H,R22N).
T1 sequence: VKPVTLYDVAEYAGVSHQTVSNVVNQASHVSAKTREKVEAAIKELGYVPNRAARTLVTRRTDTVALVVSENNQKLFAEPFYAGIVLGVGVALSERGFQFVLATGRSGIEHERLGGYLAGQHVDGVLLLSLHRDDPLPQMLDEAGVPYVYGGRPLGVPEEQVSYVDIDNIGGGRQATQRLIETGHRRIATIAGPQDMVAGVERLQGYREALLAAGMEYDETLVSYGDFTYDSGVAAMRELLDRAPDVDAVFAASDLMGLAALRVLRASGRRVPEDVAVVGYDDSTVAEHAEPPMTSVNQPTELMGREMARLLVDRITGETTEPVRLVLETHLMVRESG
The experiment in a line: cell_activity; day 1 dynamic range of interception, cellobiose induced; 114.83 day 3. The settings on record: chain copies: 2.

Another data set has as its target T2, E+KSL (UniProt O87590 SEQ:1-337, Y17K,Q18S,R22L).
T2 sequence: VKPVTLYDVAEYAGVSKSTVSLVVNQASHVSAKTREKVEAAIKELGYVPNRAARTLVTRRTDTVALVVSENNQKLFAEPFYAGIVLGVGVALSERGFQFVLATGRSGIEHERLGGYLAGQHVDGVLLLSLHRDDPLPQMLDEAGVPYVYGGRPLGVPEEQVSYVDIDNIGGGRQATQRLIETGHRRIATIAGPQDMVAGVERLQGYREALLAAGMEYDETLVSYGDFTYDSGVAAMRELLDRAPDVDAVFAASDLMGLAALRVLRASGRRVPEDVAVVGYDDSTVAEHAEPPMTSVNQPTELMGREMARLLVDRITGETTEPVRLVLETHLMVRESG
The experiment in a line: cell_activity; day 1 dynamic range; 71.51 day 3. The note with it: chain copies: 2.

For a further data set, the target named is I+KSL (UniProt P03023 SEQ:1-360, Y17K,Q18S,R22L). The experiment in a line: cell_activity; day 1 dynamic range; 7.42 day 3. The settings on record: chain copies: 4.
Data set [1] addresses T3, E+YQR (CelR core, LacI-type DBD) (UniProt O87590 SEQ:1-337).
T3 chain: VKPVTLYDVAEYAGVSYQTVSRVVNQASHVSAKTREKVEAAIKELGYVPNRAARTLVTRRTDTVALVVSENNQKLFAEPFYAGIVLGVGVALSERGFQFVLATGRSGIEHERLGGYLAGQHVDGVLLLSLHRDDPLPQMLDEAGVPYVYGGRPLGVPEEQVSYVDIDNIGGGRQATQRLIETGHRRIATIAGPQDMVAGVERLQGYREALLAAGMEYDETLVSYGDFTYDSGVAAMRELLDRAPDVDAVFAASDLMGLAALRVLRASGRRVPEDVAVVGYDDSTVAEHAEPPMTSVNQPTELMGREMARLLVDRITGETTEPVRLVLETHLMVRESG
The experiment in a line: cell_activity; day 1 dynamic range; 141.52 day 3. The settings on record: chain copies: 2.

Another data set addresses T4, I+YQR (LacI) (UniProt P03023 SEQ:1-360).
T4 chain: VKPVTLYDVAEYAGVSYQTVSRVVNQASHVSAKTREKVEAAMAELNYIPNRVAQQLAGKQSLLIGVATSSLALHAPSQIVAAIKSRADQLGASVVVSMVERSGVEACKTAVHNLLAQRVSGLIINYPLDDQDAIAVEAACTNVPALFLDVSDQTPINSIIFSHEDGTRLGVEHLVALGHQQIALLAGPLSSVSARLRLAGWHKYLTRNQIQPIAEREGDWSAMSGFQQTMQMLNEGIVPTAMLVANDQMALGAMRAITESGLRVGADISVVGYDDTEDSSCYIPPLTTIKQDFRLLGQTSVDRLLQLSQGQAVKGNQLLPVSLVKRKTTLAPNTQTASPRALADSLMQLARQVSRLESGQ
Kind of data set: cell_activity; day 1 dynamic range; 29.77 day 3. The note with it: chain copies: 4.

B1: A118 attP Ottg P+1 (dsDNA)
DNA 1: TTAGTTCCTCGTTTTCTCTCGTTAATTTTGAGCGCTCAAAAAAACTAAA
DNA 2: TTTAGTTTTTTTGAGCGCTCAAAATTAACGAGAGAAAACGAGGAACTAA
For B1, the binding signal with I+HQN came out at 15.4 fold; in the data set with E+HQN, 20.6 fold.

B2: A118 attP Oagg P+1 (dsDNA)
DNA 1: TTAGTTCCTCGTTTTCTCTCGTTAATTAGGAGCGCTCCTAAAAACTAAA
DNA 2: TTTAGTTTTTAGGAGCGCTCCTAATTAACGAGAGAAAACGAGGAACTAA
Consider B2, for which the binding signal with E+KSL was determined as 14.7 fold; with I+KSL, 5.44 fold.

B3: A118 attP Ogtg (Osym) P+1 (dsDNA)
DNA 1: TTAGTTCCTCGTTTTCTCTCGTTAATTGTGAGCGCTCACAAAAACTAAA
DNA 2: TTTAGTTTTTGTGAGCGCTCACAATTAACGAGAGAAAACGAGGAACTAA
In data set [1], B3 returned a binding signal of 20.9 fold. This molecule yielded a dynamic range in the data set with I+YQR (LacI) of 9.26 fold.
